# Measurements taken from US20110039788, “COMPOSITIONS, METHODS AND KITS FOR DETECTING AND TREATING CANCER” (University of Miami, published 2011).
# B1: Lbh TBE T3 (dsDNA)
# DNA 1: GCTTTGAAGA
# DNA 2: TCTTCAAAGC
# B2: Lbh TBE T1 (dsDNA)
# DNA 1: CCTTTGAATC
# DNA 2: GATTCAAAGG
# B3: Lbh TBE T2 (dsDNA)
# DNA 1: TCTTTGATAT
# DNA 2: ATATCAAAGA
# B4: Lbh TBE T4 (dsDNA)
# DNA 1: ACTTTGTACT
# DNA 2: AGTACAAAGT
# Legend:
# [1] = target: T1, TCF4 (TCF7L2) DNA-binding domain (UniProt Q9NQB0 Q9NQB0:265-496); experiment: EMSA; high affinity; anti-His supershift assay; conditions: tags: His (pET28A), expressed in E. coli; label: 32P 5' end
# T1 sequence (Q9NQB0 265-496, one chain of several): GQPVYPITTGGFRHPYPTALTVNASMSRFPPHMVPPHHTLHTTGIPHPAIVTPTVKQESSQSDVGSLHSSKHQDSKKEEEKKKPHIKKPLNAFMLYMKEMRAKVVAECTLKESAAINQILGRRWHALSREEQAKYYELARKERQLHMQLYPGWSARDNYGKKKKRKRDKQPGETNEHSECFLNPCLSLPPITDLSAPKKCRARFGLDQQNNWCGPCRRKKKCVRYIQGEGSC
# Experimental: (§1) Double-stranded DNA oligonucleotides (30 mers) containing the genomic TBE sites T1-T4 with flanking sequences were 5′ end-labeled with ³²P and 5000 cpm/μl of labeled probe was incubated with 1 μg of recombinant His-TCF4 protein in a total volume of 15 μl binding buffer. For competition and supershift experiments, His-TCF4 was pre-incubated with unlabelled DNA oligonucleotides at 400-fold excess or with 1-5 μg of anti-6× His tag antibody (Abcam) for 10 minutes prior to addition of labeled probe. Samples were separated on 5% non-denaturing polyacrylamide gels for 1 h at 400V. Protein-DNA complexes were detected by phosphoimaging on a Storm 840 Scanner (Molecular Dynamics).
# [2] = target: T1, TCF4 (TCF7L2) DNA-binding domain; experiment: EMSA; high affinity; 1 ug protein in 15 ul; conditions: tags: His (pET28A), expressed in E. coli; label: 32P 5' end
# Experimental: as §1
# To elucidate the molecular pathways acting upstream of Lbh, murine Lbh genomic sequences were screened for potential transcription factor binding sites. This in silico search identified four conserved putative TCF/LEF-binding elements (TBEs) in the Lbh gene locus. Two TBEs with the consensus motif 5′-CTTTG(A/T)(A/T)-3′ were located within an enhancer region (E1)-6245 (T1) and −6195 (T2) base pairs (bp) upstream of the Lbh transcriptional start site (FIG. 1A). In addition, two consensus TBEs were found in an enhancer (E2) contained within the first intron of the Lbh gene at positions +1558 (T3) and +2145 (T4) by (FIG. 1A). To directly assay for TCF binding to these sites, electrophoretic mobility shift analysis (EMSA) was performed. Recombinant TCF4 protein bound with high affinity to all Lbh-specific TBEs (T1-T4), but not to an unspecific oligonucleotide (FIG. 1B). TCF4 binding to these sites was efficiently competed by addition of 400-fold excess of unlabeled wild-type (+) oligonucleotide as well as increasing amounts of an antibody against recombinant TCF4 protein, but not by addition of 400-fold excess of mutant (m) oligonucleotide (FIGS. 1B, C). Subsequently, cell-based reporter assays were performed to test whether the Lbh genespecific TBE sites (T1-T4) were functionally responsive to overexpression of β-catenin, which is the Wnt-inducible component of the TCF/β-catenin transcriptional complex. […]
Binder,binding result [1],binding result [2]
B1,binds,–
B2,–,binds
B3,–,binds
B4,–,binds
